The source of these data is patent US20250304644A1, “PEPTIDES TRIPLE AGONISTS OF GIP, GLP-1 AND GLP-2” (BAINAN BIOTECH APS, priority 2021, published 2025).

*1 amine or outer side, *2 acyl side, *3 side chain or, on linkers, in order; H or OH if unused. Where no end group is shown, it is not given here. Side-chain parts run from the residue outwards. [ ]: non-standard residue; d: D form. The star is where a group is joined. C18 diacid = O=C(O)CCCCCCCCCCCCCCCCC(=O)*; γGlu = O=C(O)[C@H](CCC(=O)[*:2])N[*:1]; AEEA = NCCOCCOCC(=O)O; Aib = CC(C)(N)C(=O)O

Holding throughout (assay): cell-based or functional assay
One assay concerns the target T1, human SNAP-tagged GLP-2R (human, UniProt O95838 1-553, SNAP tag labeled with Tag-Lite SNAP-Lumi4-Tb).
T1 sequence (looked up): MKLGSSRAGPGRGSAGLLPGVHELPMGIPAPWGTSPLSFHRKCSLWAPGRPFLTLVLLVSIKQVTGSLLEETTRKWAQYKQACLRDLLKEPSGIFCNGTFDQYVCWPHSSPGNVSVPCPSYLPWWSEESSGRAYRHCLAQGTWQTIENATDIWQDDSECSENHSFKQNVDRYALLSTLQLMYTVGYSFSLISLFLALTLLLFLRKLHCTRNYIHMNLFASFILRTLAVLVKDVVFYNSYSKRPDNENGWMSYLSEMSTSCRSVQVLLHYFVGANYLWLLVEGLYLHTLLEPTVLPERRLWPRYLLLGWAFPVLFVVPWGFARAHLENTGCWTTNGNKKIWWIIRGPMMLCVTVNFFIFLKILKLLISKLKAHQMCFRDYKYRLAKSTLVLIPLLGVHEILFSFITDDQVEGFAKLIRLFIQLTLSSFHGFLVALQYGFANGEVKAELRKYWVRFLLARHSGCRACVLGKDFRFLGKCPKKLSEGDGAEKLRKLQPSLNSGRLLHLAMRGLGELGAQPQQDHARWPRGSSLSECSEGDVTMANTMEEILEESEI

Assay [1] addresses T2, Human N-terminally SNAP-tagged GIPR (human, UniProt P48546 22-466, SNAP tag labeled with Tag-Lite SNAP-Lumi4-Tb).
T2 sequence (looked up): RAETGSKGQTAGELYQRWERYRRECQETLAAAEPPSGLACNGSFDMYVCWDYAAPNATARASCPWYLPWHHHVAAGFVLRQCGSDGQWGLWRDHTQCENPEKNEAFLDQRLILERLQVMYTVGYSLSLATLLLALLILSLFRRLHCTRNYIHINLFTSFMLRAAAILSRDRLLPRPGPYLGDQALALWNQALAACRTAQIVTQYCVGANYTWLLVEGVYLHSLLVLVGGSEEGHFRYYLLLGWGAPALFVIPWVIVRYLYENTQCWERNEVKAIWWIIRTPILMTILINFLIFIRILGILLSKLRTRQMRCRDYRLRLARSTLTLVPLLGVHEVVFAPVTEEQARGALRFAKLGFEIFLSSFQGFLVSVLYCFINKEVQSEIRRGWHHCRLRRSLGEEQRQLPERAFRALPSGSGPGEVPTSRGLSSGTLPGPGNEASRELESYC

For assay [2], the target named is human GLP-1R (glucagon-like peptide-1 receptor) (human, UniProt P43220 24-463).
A further assay addresses human SNAP-tagged GLP-1R (human, UniProt P43220 24-463, SNAP tag labeled with Tag-Lite SNAP-Lumi4-Tb).
The target of assay [3] is human glucagon receptor (GCGR) (human, UniProt P47871 26-477, limits assumed).
human glucagon receptor (GCGR), sequence (P47871 26-477 limits assumed): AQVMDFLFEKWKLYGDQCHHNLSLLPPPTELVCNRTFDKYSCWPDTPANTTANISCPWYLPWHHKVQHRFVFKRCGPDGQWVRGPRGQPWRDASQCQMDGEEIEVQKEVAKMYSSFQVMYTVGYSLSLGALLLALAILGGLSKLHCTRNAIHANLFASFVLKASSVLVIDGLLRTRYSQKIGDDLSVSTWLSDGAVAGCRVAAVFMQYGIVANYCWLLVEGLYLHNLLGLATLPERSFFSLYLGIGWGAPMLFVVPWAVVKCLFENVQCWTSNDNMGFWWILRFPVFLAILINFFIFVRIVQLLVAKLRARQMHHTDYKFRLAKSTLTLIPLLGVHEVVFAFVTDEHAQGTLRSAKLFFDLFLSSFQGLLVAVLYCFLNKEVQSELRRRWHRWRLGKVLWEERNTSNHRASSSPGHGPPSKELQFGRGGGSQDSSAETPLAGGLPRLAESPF
Assay [4] deals with T3, human GLP-2R (glucagon-like peptide-2 receptor) (human, UniProt O95838 1-553).
T3 sequence (looked up): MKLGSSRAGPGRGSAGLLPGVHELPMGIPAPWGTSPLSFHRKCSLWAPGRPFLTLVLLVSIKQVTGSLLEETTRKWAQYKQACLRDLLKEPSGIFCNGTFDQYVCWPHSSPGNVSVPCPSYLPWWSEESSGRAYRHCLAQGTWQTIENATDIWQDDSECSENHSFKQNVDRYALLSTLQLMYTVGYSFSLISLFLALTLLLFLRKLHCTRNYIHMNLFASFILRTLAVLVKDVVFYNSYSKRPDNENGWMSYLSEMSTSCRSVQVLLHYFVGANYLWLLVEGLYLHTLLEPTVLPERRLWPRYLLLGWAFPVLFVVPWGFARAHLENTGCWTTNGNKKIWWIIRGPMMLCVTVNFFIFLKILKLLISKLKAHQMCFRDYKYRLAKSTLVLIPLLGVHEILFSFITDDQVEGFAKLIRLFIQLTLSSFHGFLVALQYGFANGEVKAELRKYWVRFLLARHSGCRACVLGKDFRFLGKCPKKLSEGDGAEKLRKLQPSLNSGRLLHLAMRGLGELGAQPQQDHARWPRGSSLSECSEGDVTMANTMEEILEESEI

Assay [5] concerns the target T4, human GIPR (glucose-dependent insulinotropic polypeptide receptor) (human, UniProt P48546 22-466).
T4 sequence (looked up): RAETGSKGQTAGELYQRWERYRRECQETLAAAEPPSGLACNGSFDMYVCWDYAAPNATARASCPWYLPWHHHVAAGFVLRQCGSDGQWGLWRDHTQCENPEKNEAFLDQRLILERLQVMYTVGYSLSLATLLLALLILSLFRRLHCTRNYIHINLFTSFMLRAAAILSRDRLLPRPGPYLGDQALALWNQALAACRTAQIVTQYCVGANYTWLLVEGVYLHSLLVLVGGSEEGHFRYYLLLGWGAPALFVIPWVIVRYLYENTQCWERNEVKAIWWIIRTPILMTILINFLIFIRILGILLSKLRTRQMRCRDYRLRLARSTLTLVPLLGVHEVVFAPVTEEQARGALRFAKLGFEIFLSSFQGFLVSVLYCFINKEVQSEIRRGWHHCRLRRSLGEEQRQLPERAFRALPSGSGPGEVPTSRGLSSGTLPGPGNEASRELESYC

B1: Compound 28 (peptide)
peptide: H[Aib]DGTFISDYSTILDALAARDFINWLIQTKITK([AEEA-AEEA-γGlu-C18 diacid])-OH
As for B1, in the assay with human SNAP-tagged GLP-2R, the “Absolute hGLP-2R internalization (AUC)” value was 12 AUC and the “Relative hGLP-2R internalization (%)” value stood at 24.8%. Further, in assay [1], the “Absolute hGIPR internalization (AUC)” value is 21.7 AUC and the “Relative hGIPR internalization (%)” value was determined as 59%. In assay [2], the “EC50 (nM) GLP-1R” value was 3.98 nM, the “Efficacy GLP-1R” value worked out at 102 and the “logEC50 GLP-1R” value was found to be 8.4. Besides, in the assay with human SNAP-tagged GLP-1R, the “Absolute hGLP-1R internalization (AUC)” value came out at 0.96 AUC and the “Relative hGLP-1R internalization (%)” value is 1.14%. For the same molecule, the “potency in Gs activation, measured as cAMP accumulation (-p Log EC50)” value in assay [3] was < 7 -p Log EC50. Besides, in assay [4], the “Efficacy GLP-2R” value was determined as 89 and the “logEC50 GLP-2R” value was found to be 8.7. Further, in assay [5], the “EC50 (nM) GIPR” value came to 0.071 nM, the “Efficacy GIPR” value was 119 and the “pEC50 GIPR” value was determined as 10.2.
